According to a protein production outcome set (Wang et al. 2014):

Assay: label from the status in PepcDB records
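Further: failed if final PepcDB status was selected cloned or expressed and not failed if soluble or beyond.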

MKDGMKQQKLVEKMTIEEKAAILSGKTVWQTREIDRLSIPSIFLSDGPHGIRKQAGTGDHLGLNASLNATCFPTAATIANSWNQNLGEEIGQALGEEAASMDVNILLGPGLNIKRSPLCGRNFEYFSEDPYLSGKMAASYIRGIQSKGVYACPKHLAVNSQELRRMAMDAVVDERTLREIYLTGFEIAVKEGHAKAIMSSYNQINGIYANEDKHLLTDILRKDWGFDGIVVTDWGGSNDHVKGVAAGSNLEMPSCGYDSAREVIAAVQNGKLKEADLDERVGELVDAVMELTSGKKLSDKNFDRNEHHQLARKAAAESMILLKNEKQILPLDTKKSIAVIGDFAFSPRYQGAGSSMVNPTKVEDMSSILQQYDLNILGMTRGYHRNGDVDENDRKFALNLSMNADIVIFCFGLDEISESEGLDRTHMRIPQDQIDLLQDISKVNENVIGILSAGSAIEMPWHTCCKAILHGYLNGQAGASATLDILTGKVNPSGRLAETYPISYEQTPAYRYYPSNEKTSEYRESVYVGYRYYDTSKVRVQYPFGFGLSYTEFTYSDLIIEEDGIKVSVTNTGDRDGAEVVQMYVGLPNAIVFRPEKELKGFAKVYLKAGESRQIRIPFDDKTFRYWNIKTGQWEIETGTYQIMVGASVADIRLTGMTERTGNSKGYPYNPAKMPYYYTGIVQKISDEEFRELLGHEIPNRRWSGNLEINDAICQMYYAKSRLARLIYRCLTKMKKKSEAQGKPDLNILFIYNMPFRGIAKMTGGAVSMEMVYGIVDAVNGHFMLGVKKIIGGYFRNRRNNKKYEKLLKGAGGKCR
protein production: failed

LDTIPTTYVDAGSVFGKTGDAEKVLNGGWNYLMETFNSYANPGYGAMLRANDAMGSDVVLNSKYGFRTHNEFSAIYGKGGTNTLSWLLAYRVINDCNGVLDNIDAAEGTQADRNRIKGQALALRGFLYLHLASCYSFAIDKDPDAVCAPIYTQSTDETIAAEGKPASSVSEVYAQSINDLEEALELIPETYVRDAKHKIDNEVVLGILSRACLYARQWEKAKTYSDKLLAKDNYLMTESEYKAGFNSVDNKEWIWGHAQTNDQSNASYQFHYLDTTTKGSYYYSFNVDPYFRDLFEDGDYRKEMLFWATDPGADVESAAYVWMRNSKFRFRDIENQLGDIVLMRVAEIYLINAEAKAHLNDPDAINKLNDLKTARGAKTIHTNLSQQDLLETIWLERRKELWGEGFSLIDIIRNQQTVVRNAYPEGPIDYIYTDENGQTHTLKKKTQGHRFFNFPDKSAFCPNSKYYLYRITDSEELANKNLYKDHPKLSIYTK
protein production: not failed

MNGAVDLVIRFLLFAMLHSIAALPGVQQRIGNMFPRGFRFYRAAYNLAALVTFGWVMAAWPLSPVIYLVPGSASLAFHAVQAFTLLQMIRCVSRTGMADFLGIRHPSREDAAHELVTTGCYGTVRHPLYTLAMVFCLFNPLMTVKWLLFTLMAGGYFVMGAVVEERRLEREFGDAYRSYRRQVPMLIPRRRKPVAKE
protein production: failed

MINEQRLLNTFLELVQIDSETGNESTIQPILKEKFIALGLDVKEDEAAKHPKLGANNLVCTMNSTIEEGEVPKLYLTSHMDTVVPAINVKPIVKDDGYIYSDGTTILGADDKAGLAAMLEVLQVIKEQQIPHGQIQFVITVGEESGLIGAKELNSELLDADFGYAIDASADVGTTVVGAPTQMLISAKIIGKTAHASTPKEGVSAINIAAKAISRMKLGQVDEITTANIGKFHGGSATNIVADEVILEAEARSHDPERIKTQVKHMTDVFETTASELGGKAEVTVEQSYPGFKINDNEAVVKIAQESARNLGLSANTIISGGGSDGSIINTFGIPSVILGVGYEKIHTTNERMPIKSLNLLASQVLEIIKIVARQSK
protein production: not failed

MSEGTLFVFTCDRPNGSSVIMCPGGGFLKTNLENEGIDFAEWFTKLGITYIVFKYRMPHGNPDVPEQDTRLALKVVREKFPEFCDKLGVMGASIGGYLATFSATLLPDDEKPDFQILMYPVVSVDDRLTHFPCRERMFGHSYSPDKMEQYSPIEHITSGTPAAFIVAAADDAVVSPLNGIMYAARLQKADIPISLHIYPAGGHGFGYNDSFVYKQEWLQELGEWLAKLLEHHHHHH
protein production: failed
